This note sets out measurements from patent publication EP4703384A1 (Chia Tai Tianqing Pharmaceutical Group Co., Ltd., dated 2026).

Substitutions are numbered along the chain they refer to.

Test [1] addresses T1, human GPRC5D protein (human, UniProt Q9NZD1 1-345).
T1 construct: also called hGPRC5D; CHO-K1-hGPRC5D^hi
Description: FACS on NCI-H929 cells.

The target of test [2] is T2, T cell surface CD3 (human, UniProt P07766 23-207; P04234 22-171; P09693 23-182). Description: cell-based or functional assay.
Test [3] deals with T2, T cell surface CD3. Description: FACS on human CD3+ T cells.

T1 sequence (Q9NZD1 whole entry): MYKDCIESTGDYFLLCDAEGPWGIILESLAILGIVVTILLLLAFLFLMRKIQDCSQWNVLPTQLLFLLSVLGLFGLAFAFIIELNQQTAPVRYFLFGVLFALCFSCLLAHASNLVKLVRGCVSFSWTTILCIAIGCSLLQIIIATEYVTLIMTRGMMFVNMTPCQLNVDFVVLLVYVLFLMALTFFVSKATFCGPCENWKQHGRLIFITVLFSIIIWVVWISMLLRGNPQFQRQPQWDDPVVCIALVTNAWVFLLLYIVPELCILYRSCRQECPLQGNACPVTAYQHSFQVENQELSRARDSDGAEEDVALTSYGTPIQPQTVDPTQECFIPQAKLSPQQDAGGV
T2 sequence (P07766 23-207 limits assumed, chain 1 of 3): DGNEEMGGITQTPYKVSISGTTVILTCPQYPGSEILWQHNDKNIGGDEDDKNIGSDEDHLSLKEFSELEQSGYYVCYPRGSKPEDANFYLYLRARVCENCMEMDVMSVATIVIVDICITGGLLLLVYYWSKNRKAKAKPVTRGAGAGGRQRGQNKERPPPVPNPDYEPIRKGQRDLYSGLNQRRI
T2 sequence (P04234 22-171 limits assumed, chain 2 of 3): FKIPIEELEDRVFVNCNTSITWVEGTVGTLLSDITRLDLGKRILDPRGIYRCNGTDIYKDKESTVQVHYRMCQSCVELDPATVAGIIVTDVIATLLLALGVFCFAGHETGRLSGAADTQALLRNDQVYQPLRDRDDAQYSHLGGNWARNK
T2 sequence (P09693 23-182 limits assumed, chain 3 of 3): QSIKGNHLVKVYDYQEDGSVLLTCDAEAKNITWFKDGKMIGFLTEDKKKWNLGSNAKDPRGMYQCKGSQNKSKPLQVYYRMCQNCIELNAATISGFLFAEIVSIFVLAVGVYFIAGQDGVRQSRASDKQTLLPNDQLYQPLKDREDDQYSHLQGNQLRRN

B1: hu131-v2 (antibody, human IgG1, kappa, V domains shown)
VH: EVQLVQSGAEVVKPGASVKMSCKASGYTFTNYVMHWVKQAPGQGLEWIGYFNPYNDGTNYNEKFKGRATLTSDTSANTAYMELSSLRSEDTAVYYCARGGVRRYFDVWGQGTTVTVSS
VL: DIQMTQSPSSLSASVGDRVTITCRASQDIGSNLNWLQLGPGGAIKRLIYATFSLDSGVPSRFSGSRSGSDYTLTISSLQPEDFVDYYCQQYANFPPTFGGGTKVEIKR
notes: Humanized antibody of Chi-131
Take B1: in test [1], the binding result is recorded as “binds”.

B2: hu131-v3 (antibody, human IgG1, kappa, V domains shown)
VH: B1 VH with G57A
VL: B1 VL
notes: Humanized antibody of Chi-131
Turning to B2, the binding result in test [1] is given as “binds”.

B3: hu131-v1 (antibody, human IgG1, kappa, V domains shown)
VH: B1 VH with I48M, A68V
VL: B1 VL
notes: Humanized antibody of Chi-131
For the molecule B3, in test [1], the binding result was “binds”.

B4: hu131-v4 (antibody, human IgG1, kappa, V domains shown)
VH: B1 VH with D56E
VL: B1 VL
notes: Humanized antibody of Chi-131
B4: the binding result in test [1] is given as “binds”.

B5: Talquetamab (bispecific antibody, human IgG4 S228P, kappa, lambda, F234A L235A)
heavy 1: not shown
light 1: DIQMTQSPSSLSASVGDRVTITCKASQNVATHVGWYQQKPGKAPKRLIYSASYRYSGVPSRFSGSGSGTEFTLTISNLQPEDFATYYCQQYNRYPYTFGQGTKLEIKRTVAAPSVFIFPPSDEQLKSGTASVVCLLNNFYPREAKVQWKVDNALQSGNSQESVTEQDSKDSTYSLSSTLTLSKADYEKHKVYACEVTHQGLSSPVTKSFNRGEC
heavy 2: EVQLVESGGGLVQPGGSLRLSCAASGFTFNTYAMNWVRQAPGKGLEWVARIRSKYNNYATYYAASVKGRFTISRDDSKNSLYLQMNSLKTEDTAVYYCARHGNFGNSYVSWFAYWGQGTLVTVSSASTKGPSVFPLAPCSRSTSESTAALGCLVKDYFPEPVTVSWNSGALTSGVHTFPAVLQSSGLYSLSSVVTVPSSSLGTKTYTCNVDHKPSNTKVDKRVESKYGPPCPPCPAPEAAGGPSVFLFPPKPKDTLMISRTPEVTCVVVDVSQEDPEVQFNWYVDGVEVHNAKTKPREEQFNSTYRVVSVLTVLHQDWLNGKEYKCKVSNKGLPSSIEKTISKAKGQPREPQVYTLPPSQEEMTKNQVSLTCLVKGFYPSDIAVEWESNGQPENNYKTTPPVLDSDGSFLLYSKLTVDKSRWQEGNVFSCSVMHEALHNHYTQKSLSLSLGK
light 2: QTVVTQEPSLTVSPGGTVTLTCRSSTGAVTTSNYANWVQQKPGQAPRGLIGGTNKRAPGTPARFSGSLLGGKAALTLSGVQPEDEAEYYCALWYSNLWVFGGGTKLTVLGQPKAAPSVTLFPPSSEELQANKATLVCLISDFYPGAVTVAWKADSSPVKAGVETTTPSKQSNNKYAASSYLSLTPEQWKSHRSYSCQVTHEGSTVEKTVAPTECS
notes: Four polypeptide chains; also called benchmark; BM
In general, EC50 refers to the concentration that produces a half-maximal response. The low end stands for higher potency in that assay, the high end for lower potency in that assay. Turning to B5, in test [2], the “CD25/CD4 EC50(nM), activation of T cells in the presence of MM.1S” value turned out to be 0.0637 nM; the “CD25/CD8 EC50(nM), activation of T cells in the presence of MM.1S” value came to 0.0592 nM; the “CD69/CD4 EC50(nM), activation of T cells in the presence of MM.1S” value came to 0.046 nM; the “CD69/CD8 EC50(nM), activation of T cells in the presence of MM.1S” value came out at 0.0329 nM. In addition, in test [3], the EC50 was 5.35 nM and the “Top(MFI)” value was determined as 155000 MFI.

B6: hu128-v1 (antibody, human IgG1, kappa, V domains shown)
VH: EVQLVESGGGLVQPGGSRRVSCAASGFTFSSFGMHWVRQAPGKGLEWVAYISRGSSTIYYADTVKGRFTISRDNAKNSLYLQMNSLRAEDTAVYYCARSGYGSSSYYFDYWGQGTTVTVSS
VL: EIVLTQSPATLSASPGERATMSCRASSSIRSSYLHWYQQKPGQSPRLWIYSTSNLASGVPARFSGSGSGTDYTLTISSLEPEDAAVYYCQQFSGYPLTFGGGTKVEIKR
In the case of B6, the binding result in test [1] is on record as “binds”.
